In patent publication US20030073236A1, “p193 proteins and nucleic acids, and uses thereof” (priority 1999, published 2003):

Tests used:
SV40 T-Ag = target: T1, SV40 T-Ag (Simian virus 40, UniProt P03070); test: p193/T-Ag binding by immune precipitation; details: radiolabeled in vitro translated p193 mixed with recombinant T-Ag
T1 construct: construct designated CMV-T-Ag; expressed in transfected cells; host or cells: NIH-3T3
Method: A T-Ag cDNA was subcloned into pcDNA3.1 expression vector (which lacks the epitope tag; construct designated CMV-T-Ag). For IP/Western analyses, NIH-3T3 cells (ATCC, Rockville Md.) were co-transfected with […] and CMV-p193myc using the calcium phosphate approach (Sambrook, J., Fritsch, E. F., and Maniatis, T. (1989) Molecular cloning, Cold Spring Harbor Laboratory Press, Cold Spring Harbor, N.Y.). Protein (1 mg) prepared from the transfected cells was reacted with an anti-T-Ag (PAb419), an anti-myc (9E10, Santa Cruz Biotech.), or an IgG subtype-matched non-specific antibody (anti-GST, Pharmacia), and the resulting immune complexes were subjected to Western blot analysis. 100 μg of total protein from non-transfected and transfected cells were included as controls. The blots were probed with an anti-myc (9E10) or anti-T-Ag (PAb416) antibody, and signal was developed using the ECL method. […] Immune complex was then visualized via autoradiography (p193) or Western blotting (T-Ag) as described above.

[1] = system: ES-derived cardiomyocytes; test: Isoproterenol effect on growth of ES-derived cardiomyocytes co-expressing p193dn and p53dn; type: cell-based; details: cells with MHC-p193dn and MHC-p53dn, isoproterenol 1 μM mg/ml for 58 days, vs. absence
Excerpt: It follows then that if the p193 and p53 pathways are blocked, hypertrophic stimuli might result in direct cell cycle activity. To test this, undifferentiated ES cells were transfected with the MHC-neor/pGK-hygror transgene in combination with both the MHC-p193dn and MHC-p53dn transgenes. Transfected cells were enriched by virtue of their resistance to hygromycin, and then induced to differentiate. The ES-derived cardiomyocytes were then enriched by virtue of their resistance to G418. Cardiomyocyte growth was then compared in these cultures in the presence vs. absence of exogenous isoproterenol (1 μM mg/ml) for 58 days.

T1 sequence (Q8VE73 whole entry): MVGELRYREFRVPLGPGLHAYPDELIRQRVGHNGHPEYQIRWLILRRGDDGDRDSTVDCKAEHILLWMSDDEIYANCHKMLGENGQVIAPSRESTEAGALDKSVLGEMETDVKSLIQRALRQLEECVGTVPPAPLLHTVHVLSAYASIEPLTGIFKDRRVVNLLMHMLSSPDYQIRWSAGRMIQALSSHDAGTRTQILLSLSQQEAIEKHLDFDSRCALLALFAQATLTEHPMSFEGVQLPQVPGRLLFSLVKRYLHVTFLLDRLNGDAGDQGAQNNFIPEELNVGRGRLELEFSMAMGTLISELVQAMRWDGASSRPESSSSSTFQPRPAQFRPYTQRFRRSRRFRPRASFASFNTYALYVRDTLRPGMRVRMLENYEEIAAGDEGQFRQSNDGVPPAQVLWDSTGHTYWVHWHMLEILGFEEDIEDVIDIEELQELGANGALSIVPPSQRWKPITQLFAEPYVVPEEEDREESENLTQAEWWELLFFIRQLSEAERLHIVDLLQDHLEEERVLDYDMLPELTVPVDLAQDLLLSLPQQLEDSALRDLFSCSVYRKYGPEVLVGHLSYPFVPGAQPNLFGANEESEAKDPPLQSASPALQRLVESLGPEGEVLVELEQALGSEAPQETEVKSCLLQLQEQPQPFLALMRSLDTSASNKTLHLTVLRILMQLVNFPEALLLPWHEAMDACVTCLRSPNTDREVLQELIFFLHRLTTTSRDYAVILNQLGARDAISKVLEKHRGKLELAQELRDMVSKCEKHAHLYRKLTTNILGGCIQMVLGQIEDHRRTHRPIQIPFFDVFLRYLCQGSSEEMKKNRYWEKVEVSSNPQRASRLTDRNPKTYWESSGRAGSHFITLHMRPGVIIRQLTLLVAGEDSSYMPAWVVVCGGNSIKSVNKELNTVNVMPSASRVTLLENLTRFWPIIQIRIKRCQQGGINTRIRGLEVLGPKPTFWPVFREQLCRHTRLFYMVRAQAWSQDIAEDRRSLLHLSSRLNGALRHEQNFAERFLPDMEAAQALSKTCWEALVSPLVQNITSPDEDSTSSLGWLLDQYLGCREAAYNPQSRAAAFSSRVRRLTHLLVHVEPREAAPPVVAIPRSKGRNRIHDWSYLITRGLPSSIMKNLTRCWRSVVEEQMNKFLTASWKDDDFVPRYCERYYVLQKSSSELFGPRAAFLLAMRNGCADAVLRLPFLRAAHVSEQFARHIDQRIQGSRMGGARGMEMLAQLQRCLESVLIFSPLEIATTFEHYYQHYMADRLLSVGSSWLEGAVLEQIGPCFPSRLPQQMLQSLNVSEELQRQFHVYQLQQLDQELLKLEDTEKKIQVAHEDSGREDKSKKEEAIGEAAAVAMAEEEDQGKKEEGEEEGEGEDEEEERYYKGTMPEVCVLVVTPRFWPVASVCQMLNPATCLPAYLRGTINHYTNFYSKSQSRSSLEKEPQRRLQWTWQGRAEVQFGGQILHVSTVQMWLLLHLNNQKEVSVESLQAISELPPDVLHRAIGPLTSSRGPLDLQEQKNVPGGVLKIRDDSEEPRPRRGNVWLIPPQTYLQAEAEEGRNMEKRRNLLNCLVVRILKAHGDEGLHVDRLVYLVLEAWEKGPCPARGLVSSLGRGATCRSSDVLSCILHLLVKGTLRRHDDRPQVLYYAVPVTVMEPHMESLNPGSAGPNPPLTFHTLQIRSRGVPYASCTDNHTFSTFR
T1 sequence (P03070 whole entry): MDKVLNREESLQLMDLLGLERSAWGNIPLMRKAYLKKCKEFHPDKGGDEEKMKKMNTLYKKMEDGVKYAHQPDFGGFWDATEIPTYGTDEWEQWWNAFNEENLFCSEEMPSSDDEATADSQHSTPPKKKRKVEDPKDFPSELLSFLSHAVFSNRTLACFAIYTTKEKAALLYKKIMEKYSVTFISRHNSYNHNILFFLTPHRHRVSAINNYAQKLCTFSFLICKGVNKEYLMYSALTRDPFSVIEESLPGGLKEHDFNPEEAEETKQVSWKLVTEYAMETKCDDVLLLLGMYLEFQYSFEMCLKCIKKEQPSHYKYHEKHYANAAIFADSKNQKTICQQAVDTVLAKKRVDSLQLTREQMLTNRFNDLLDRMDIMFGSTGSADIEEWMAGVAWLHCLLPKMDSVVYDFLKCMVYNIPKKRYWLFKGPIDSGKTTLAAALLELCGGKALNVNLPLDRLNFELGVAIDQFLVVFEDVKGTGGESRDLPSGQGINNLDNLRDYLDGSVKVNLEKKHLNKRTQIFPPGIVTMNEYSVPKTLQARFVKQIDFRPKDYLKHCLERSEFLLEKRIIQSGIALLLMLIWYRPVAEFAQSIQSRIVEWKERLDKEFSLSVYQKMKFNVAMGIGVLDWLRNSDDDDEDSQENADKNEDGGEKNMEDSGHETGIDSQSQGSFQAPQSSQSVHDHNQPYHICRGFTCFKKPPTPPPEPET

Compound: p193: apoptosis associated, T-Ag binding protein of 1689 amino acid residues (mouse, SEQ. I.D. NO. 2); here in vitro translated
- binding of in vitro translated protein to recombinant T-Ag (IP) (SV40 T-Ag): present in immune complex generated with anti-T-Ag antibody

Compound: CC(C)NCC(O)c1ccc(O)c(O)c1 (centres unmarked) [isoproterenol]
- cardiomyocyte colony size [1]: Markedly enhanced cardiomyocyte colony size
